These results are taken from publication PMC314469, “Protein Interaction Networks by Proteome Peptide Scanning” (PLoS Biology, 2004).

Common to all, as to assay: SPOT array
Experiment [1] concerns the target T1, Boi2 SH3 (BOI2_YEAST), P39969.
T1 chain: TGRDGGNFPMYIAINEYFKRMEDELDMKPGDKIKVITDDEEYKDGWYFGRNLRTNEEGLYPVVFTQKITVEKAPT

In experiment [2] the target is T2, Rvs167 SH3 (RV167_YEAST), P39743.
T2 chain: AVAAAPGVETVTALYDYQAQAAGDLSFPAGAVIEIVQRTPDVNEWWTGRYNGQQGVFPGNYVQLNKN

Experiment [3] concerns the target T3, Boi1 SH3 (BOI1_YEAST), P38041.
T3 chain: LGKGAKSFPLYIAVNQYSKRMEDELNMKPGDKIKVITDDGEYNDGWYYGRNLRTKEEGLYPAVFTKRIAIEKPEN

The target in experiment [4] is T4, Yfr024 SH3 (LSB3_YEAST), P43603.
T4 chain: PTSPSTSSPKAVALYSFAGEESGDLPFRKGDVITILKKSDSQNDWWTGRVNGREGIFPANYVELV

The target of experiment [5] is T5, Yhr016c SH3 (YSC84_YEAST), P32793.
T5 chain: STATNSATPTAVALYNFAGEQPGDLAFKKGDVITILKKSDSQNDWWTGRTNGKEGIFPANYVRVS

For VIMPEGPRKSVSMA [YJL005W 424-437], the normalised SPOT signal, Boehringer light units (BLU); mean over the file's lines of this peptide in experiment [1] was 232; in experiment [2], 176; in experiment [3], 75.3; in experiment [4], 1120; in experiment [5], 358.
The matching figures for VKKPARPWRAKPGQ [YKL220C 450-463]: 88.2, 49.8, 90.9, 5310 and 314.
VMKPKSPDKEFFDA [YJR066W 1483-1496]: the normalised SPOT signal, Boehringer light units (BLU); mean over the file's lines of this peptide in experiment [1] stood at 134; in experiment [2], 48.3; in experiment [3] it was 90.1; in experiment [4], 852; in experiment [5], 280.
Take VKEPSFPSRSAFSP [YMR191W 432-445]: the normalised SPOT signal, Boehringer light units (BLU); mean over the file's lines of this peptide in experiment [1] is 41.9; in experiment [2], 59; in experiment [3], 44.6; in experiment [4] it was 1090; in experiment [5], 246.
The matching figures for VHGPGIPMKSLEVA [YBR297W 381-394]: 49.9, 43.5, 44.3, 32.9 and 381.
For the molecule VERPSSPTKTITTE [YML109W 711-724], the normalised SPOT signal, Boehringer light units (BLU); mean over the file's lines of this peptide came to 45.2 in experiment [1]; 24.4 in experiment [2]; 39.5 in experiment [3]; 0 in experiment [4]; 159 in experiment [5].
On to VGNPEGPEKPNKKF [YKL060C 315-328], for which the normalised SPOT signal, Boehringer light units (BLU); mean over the file's lines of this peptide in experiment [1] stood at 50.6; in experiment [2] it was 34.3; in experiment [3] it was 255; in experiment [4], 186; in experiment [5] it was 131.
As to VETPPKPIKKDVRF [YDR085C 535-548], the normalised SPOT signal, Boehringer light units (BLU); mean over the file's lines of this peptide in experiment [1] is 70.6; in experiment [2] it was 86.3; in experiment [3], 65; in experiment [4], 677; in experiment [5] it was 372.
For VMVPHLPGKILLSN [YOR357C 104-117], the normalised SPOT signal, Boehringer light units (BLU); mean over the file's lines of this peptide in experiment [1] was 83.6; in experiment [2], 58; in experiment [3], 253; in experiment [4], 413; in experiment [5], 387.
The matching figures for VILPQIPPKLTFIL [YOR067C 374-387]: 10.1, 10, 107, 812 and 158.
VKHPMKPFRLMLTD [YGL194C 43-56]: the normalised SPOT signal, Boehringer light units (BLU); mean over the file's lines of this peptide in experiment [1] turned out to be 203; in experiment [2], 358; in experiment [3], 101; in experiment [4], 3950; in experiment [5] it was 3110.
The matching figures for VLEPSKPYKKNPFM [YBR284W 663-676]: 84, 5.8, 116, 238 and 127.
In the same order, the values of VFLPTAPSKHMDFA [YCR042C 478-491] are 46.3, 208, 100, 242 and 44.5.
VKRPLSPTRINGKS [YDR379W 155-168]: the normalised SPOT signal, Boehringer light units (BLU); mean over the file's lines of this peptide was found to be 49 in experiment [1]; 445 in experiment [2]; 208 in experiment [3]; 2290 in experiment [4]; 499 in experiment [5].
The matching figures for VIRPGVPTKFTKKQ [YDL171C 1275-1288]: 63.3, 58.1, 121, 202 and 125.
For the molecule VFSPTNPLRIKIAR [YGR217W 326-339], the normalised SPOT signal, Boehringer light units (BLU); mean over the file's lines of this peptide in experiment [1] was 16.2; in experiment [2], 1.8; in experiment [3] it was 110; in experiment [4], 648; in experiment [5], 151.
The matching figures for VHGPGVPVKTLEIA [YGR288W 386-399]: 56.6, 52.7, 114, 43.4 and 116.
Regarding VHGPVIPMKALEIA [YPR196W 383-396], the normalised SPOT signal, Boehringer light units (BLU); mean over the file's lines of this peptide in experiment [1] came out at 27.7; in experiment [2], 27.7; in experiment [3], 56.4; in experiment [4], 138; in experiment [5], 92.9.
In the case of VHDPNIPLRPKEII [YGR184C 643-656], the normalised SPOT signal, Boehringer light units (BLU); mean over the file's lines of this peptide in experiment [1] came out at 57.8; in experiment [2], 51.5; in experiment [3], 22.9; in experiment [4], 562; in experiment [5], 110.
